We go through 1 substance from patent publication US20240301067A1.

The target of test [1] is Cynomolgus monkey PD-1 on transiently transfected 293F cells (cynomolgus monkey). Kind of test: FACS on cyno PD-1 transfected 293F cells, experiment 1.
Test [2] concerns the target Human PD-1 extracellular domain, mFc tag (human) (UniProt Q15116). Kind of test: ELISA competition on coated hPro1.ECD.mFc; competitor hPro1L2.ECD.His; experiment 2. In general terms: An ELISA detects its analyte on a solid surface through an enzyme-linked reagent.
The target of test [3] is Human PD-1 on CHO-S cells (human) (UniProt Q15116). Kind of test: FACS competition on CHO-S.hPro1.C6 cells; competitor hProL1.ECD.mFc 5 µg/mL.
Test [4] addresses Human PD-1 (soluble analyte in SPR, Table 11) (human) (UniProt Q15116). Kind of test: SPR Biacore 8K; antibody captured on anti-human Fc chip, PD-1 injected; 1:1 fit. For orientation: SPR reads the build-up and loss of mass on a sensor chip optically.
In test [5] the target is Cynomolgus PD-1 (soluble analyte in SPR, Table 11) (cynomolgus) (UniProt B0LAJ3). The description is as above.
Test [6] addresses Cynomolgus PD-1 extracellular domain, hFc tag (cynomolgus) (UniProt B0LAJ3). Kind of test: ELISA competition on coated cynoPro1.ECD.hFc; competitor cynoProL1.ECD.hFc.biotin 2.5 µg/mL; experiment 2.
For test [7], the target named is Cynomolgus monkey PD-1 on transiently transfected 293F cells (cynomolgus monkey). Kind of test: FACS on cyno PD-1 transfected 293F cells, experiment 2.
Test [8] deals with Human PD-1 on CHO-S cells (human) (UniProt Q15116). Kind of test: FACS on CHO-S.hPro1.C6 cells.
Test [9] concerns the target Human PD-1 extracellular domain, mFc tag (human) (UniProt Q15116). Kind of test: ELISA competition on coated hPro1.ECD.mFc; competitor hPro1L2.ECD.His; experiment 1.
Test [10] addresses Cynomolgus PD-1 extracellular domain, hFc tag (cynomolgus) (UniProt B0LAJ3). Kind of test: ELISA competition on coated cynoPro1.ECD.hFc; competitor cynoProL1.ECD.hFc.biotin 2.5 µg/mL; experiment 1.

Cynomolgus PD-1 (soluble analyte in SPR, Table 11) (cynomolgus), sequence (B0LAJ3 entry or part of it limits assumed): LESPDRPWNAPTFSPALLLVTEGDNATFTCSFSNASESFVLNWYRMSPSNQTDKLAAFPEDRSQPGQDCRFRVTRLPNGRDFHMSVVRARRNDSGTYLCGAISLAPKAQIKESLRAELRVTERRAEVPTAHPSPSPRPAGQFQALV
Human PD-1 on CHO-S cells (human), sequence (Q15116 25-288): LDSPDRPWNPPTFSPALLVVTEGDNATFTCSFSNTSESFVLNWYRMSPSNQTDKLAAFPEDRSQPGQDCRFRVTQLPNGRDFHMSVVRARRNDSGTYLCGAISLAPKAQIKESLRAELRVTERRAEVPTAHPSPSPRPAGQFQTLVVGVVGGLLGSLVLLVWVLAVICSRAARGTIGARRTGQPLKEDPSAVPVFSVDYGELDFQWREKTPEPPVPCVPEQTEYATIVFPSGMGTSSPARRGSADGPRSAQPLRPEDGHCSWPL
Human PD-1 (soluble analyte in SPR, Table 11) (human), sequence (Q15116 25-167 limits assumed): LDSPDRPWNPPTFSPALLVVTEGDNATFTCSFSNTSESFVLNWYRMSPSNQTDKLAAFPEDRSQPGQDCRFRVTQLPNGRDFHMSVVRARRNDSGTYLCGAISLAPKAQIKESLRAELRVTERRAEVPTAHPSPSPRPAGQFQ
Human PD-1 extracellular domain, mFc tag (human), sequence (Q15116 25-170): as the sequence (B0LAJ3 entry or part of it limits assumed) above, with E2D, A10P, L19V, A35T, R75Q, A144T counted along it
Cynomolgus PD-1 extracellular domain, hFc tag (cynomolgus), sequence (B0LAJ3 entry or part of it limits assumed): as the sequence (B0LAJ3 entry or part of it limits assumed) above

As to “Benchmark antibody 1 (Opdivo, Nivolumab)”, the EC50 in test [1] was 0.55 nM; in test [7], 1.98 nM; in test [8], 0.409 to 0.749 nM. In addition, the IC50 was determined as 0.534 nM in test [2]; 0.544 nM in [3]; 0.585 nM in [6]; 0.95 nM in test [9]; 0.47 nM in test [10]. The Kd in test [4] was 2.87 nM; in test [5], 2.23 nM. Further, the off-rate constant (koff) in [4] came to 0.00116 s⁻¹; in test [5], 0.000672 s⁻¹. For the same substance, the kon in [4] amounted to 405000 M⁻¹ s⁻¹; in [5] it was 301000 M⁻¹ s⁻¹.

As a reminder, the EC50 is the concentration needed to bring the measured effect to its halfway point. As usually defined, the IC50 is the concentration that inhibits the measured activity by half. Usually Kd stands for the constant that tells how readily two partners part at equilibrium. In general, koff refers to the first-order rate constant of dissociation. Usually kon stands for the second-order rate constant of association.
